Measured values from patent US20240239891A1 (Stanford University, published 2024).

Legend:
[1] = molecular target: GODZILLA (RNF167) on Ba/F3 cells (mouse, UniProt Q91XF4); assay: flow cytometry, surface staining of Ba/F3 cells (mouse by legend paragraph 54, sheet prints HUMAN) with streptavidin-APC tetramerized nanobody, titration up to 200 nM; control BIOTIN
[2] = molecular target: T1, extracellular domain (ECD) of human GRAIL (RNF128) (human, UniProt Q8TEB7 39-207, limits assumed); assay: SPR (Biacore), ligand hRNF128 ECD (GRAIL), analyte GODZILLA-A5 [CONT. 3]
T1 construct: extracellular domain; also called GRAIL ECD
T1 sequence (looked up): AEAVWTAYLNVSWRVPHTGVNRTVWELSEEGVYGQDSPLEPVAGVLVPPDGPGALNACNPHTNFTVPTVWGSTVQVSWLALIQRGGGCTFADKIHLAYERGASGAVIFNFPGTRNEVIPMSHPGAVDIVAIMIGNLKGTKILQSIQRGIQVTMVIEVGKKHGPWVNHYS

[3] = molecular target: T2, extracellular domain (ECD) of human GODZILLA (RNF167) (human, UniProt Q9H6Y7 25-173, limits assumed); assay: SPR (Biacore), titration at equilibrium, nanobody on ECD
T2 construct: extracellular domain; also called GODZILLA ECD

B1: GODZILLA (RNF167) VHH of SEQ ID NO: 9 (VHH)
VHH: QVQLQESGGGLVQAGGSLRLSCAASGSIFRLWYMGWYRQAPGKEREFVASIGIGATTNYADSVKGRFTISRDNAKNTVYLQMNSLKPEDTAVYYCAVFGWAYSGYHDDFLYWGQGTQVTVSS
notes: also called A5; GODZILLA-A5
[1]
  binding result: binds
[2]
  binding result: no binding (tested: 1000 (unit not printed))
[3]
  Kd: 3 nM
